This data set deals with the molecule itself. As to the kind of experiment: SEC-MALS. In general terms: Size exclusion chromatography separates by hydrodynamic size, large species first.

B1: BOR1 from Arabidopsis thaliana (AtBOR1), purified in DDM, GFP-8His tag cleaved (natural protein)
chain: not shown
Turning to B1, the “stoichiometry N” value is 2.

In general, stoichiometry N refers to a count of units in the complex or per binding partner.

The values above are taken from paper PMC7366829 (Acta biomaterialia, 2020).
